We go through eight molecules from patent US20210130452A1.

The target in test [1] is T1, marmoset IL-17F (marmoset) (UniProt A6N6I9).
T1 sequence (looked up): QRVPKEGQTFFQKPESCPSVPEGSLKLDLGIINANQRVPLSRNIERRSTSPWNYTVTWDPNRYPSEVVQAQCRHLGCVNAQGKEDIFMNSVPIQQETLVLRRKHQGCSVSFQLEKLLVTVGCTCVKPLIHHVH
The test is described as follows: ELISA, coated IL-17F.

Test [2] concerns the target Cynomolgus monkey IL-17A (Cynomolgus monkey). The test is described as follows: cell-based or functional assay.
Test [3] addresses T2, Cynomolgus monkey IL-17F (Cynomolgus monkey) (UniProt G7P4V0).
T2 sequence: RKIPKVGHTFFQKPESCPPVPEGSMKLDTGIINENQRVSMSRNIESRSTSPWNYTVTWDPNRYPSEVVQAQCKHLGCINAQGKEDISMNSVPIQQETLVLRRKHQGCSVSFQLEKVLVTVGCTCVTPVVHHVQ
Put plainly: cell-based or functional assay.

Test [4] deals with marmoset IL-17A (marmoset). The test is described as follows: ELISA, coated IL-17A.
Test [5] addresses human IL-17A (human) (UniProt Q16552). Put plainly: AlphaScreen IL17A-RA.
Test [6] addresses human IL-17A/F heterodimer (human) (UniProt Q16552). The test is described as follows: AlphaScreen IL17A/F-RC.
The target in test [7] is human IL-17A (human) (UniProt Q16552). The test is described as follows: cell-based or functional assay.
The target in test [8] is human IL-17A/F heterodimer (human) (UniProt Q16552). The test is described as follows: cell-based or functional assay.
Test [9] has as its target T3, human IL-17F (human) (UniProt Q96PD4).
T3 sequence: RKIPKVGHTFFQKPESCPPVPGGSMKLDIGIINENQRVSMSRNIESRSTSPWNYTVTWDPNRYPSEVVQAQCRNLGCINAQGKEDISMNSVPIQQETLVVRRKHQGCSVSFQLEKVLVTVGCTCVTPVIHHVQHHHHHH
Put plainly: cell-based or functional assay.

Test [10] concerns the target human serum albumin (human) (UniProt P02768). Put plainly: SPR (Biacore), HSA.
The target in test [11] is human IL-17A (human) (UniProt Q16552). Put plainly: AlphaScreen IL17A-RC.
Test [12] concerns the target human IL-17A/F heterodimer (human) (UniProt Q16552). The test is described as follows: AlphaScreen IL17A/F-RA.
For test [13], the target named is T3, human IL-17F (human). Put plainly: AlphaScreen IL17F-RA.
For test [14], the target named is T3, human IL-17F (human). The test is described as follows: AlphaScreen IL17F-RC + HSA.
Test [15] concerns the target human IL-17A/F heterodimer (human) (UniProt Q16552). The test is described as follows: AlphaScreen IL17A/F-RA + HSA.
In test [16] the target is T3, human IL-17F (human). The test is described as follows: AlphaScreen IL17F-RC.
In test [17] the target is human IL-17A (human) (UniProt Q16552). The test is described as follows: AlphaScreen IL17A-RA + HSA.

Chain of Cynomolgus monkey IL-17A (Cynomolgus monkey) (chain, as listed by the source): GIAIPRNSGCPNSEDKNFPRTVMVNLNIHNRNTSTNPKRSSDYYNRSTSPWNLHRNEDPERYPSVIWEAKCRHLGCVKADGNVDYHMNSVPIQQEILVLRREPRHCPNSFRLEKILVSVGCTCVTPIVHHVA
Chain of human IL-17A/F heterodimer (human) (Q16552 24-155 limits assumed, one chain of several): as the sequence (chain, as listed by the source) above, with A3T, S8P, S34N, V77I, K78N, R104P counted along it
Chain of human IL-17A (human) (Q16552 other isoform, or with tags, fused parts or gaps): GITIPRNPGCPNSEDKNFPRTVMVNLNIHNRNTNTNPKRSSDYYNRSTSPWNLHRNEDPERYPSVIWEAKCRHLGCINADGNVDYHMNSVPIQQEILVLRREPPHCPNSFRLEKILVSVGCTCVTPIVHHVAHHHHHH
Chain of marmoset IL-17A (marmoset) (chain, as listed by the source limits assumed): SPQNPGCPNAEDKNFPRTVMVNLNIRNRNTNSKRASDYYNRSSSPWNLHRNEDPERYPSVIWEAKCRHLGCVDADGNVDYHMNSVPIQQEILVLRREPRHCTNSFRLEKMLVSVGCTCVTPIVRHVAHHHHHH

B1: 17C01 (VHH)
VHH: EVQLVESGGRLVQAGGSLRLPCAASGRTFTSYPMGWFRQAPGKEREFVAAISMSGDDAAYADFVRGRFTISRDDARNTVYLHMTSLKPEDTAVYYCAARTSYDGTYDYIDDYSYWGQGTQVTVSS
Regarding B1, the OD in test [1] was found to be 0.0525 OD.

B2: SH-Fc-(GS)2-13E02 (Fc fusion, not shown: a dimerising Fc or GST; small tags and cut ends)
chain: EVQLVESGGGLVQAGGSLRLSCAASGRTYDAMGWLRQAPGKEREFVAAISGSGDDTYYADSVKGRFTISKDNAGITMYLQMNSLKPEDTAVYYCATRRGLYYVWDSNDYENWGQGTQVTVSS
In test [2], B2 displayed an Emax, Cyno IL17A, HT-1080 bioassay of 100% and an IC50, Cyno IL17A, HT-1080 bioassay of 0.29 nM. Besides, in [3], the Emax, Cyno IL17F, HT-1080 bioassay turned out to be 87% and the IC50, Cyno IL17F, HT-1080 bioassay came out at 8.3 nM.

B3: 24G10 (VHH)
VHH: EVQLVESGGGLVQAGGSLRLSCGAAGGTFSSYATGWFRQAPGKEREFVAVFRWSDSHTAYADSVKGRFTISRDGAKNTLYLQMSSLKPEDTAIYYCTTATRPGEWDYWGQGTQVTVSS
B3: the OD in [4] is 0.122 OD.

B4: IL17MS0166 (bispecific antibody, part only; not given: linkers and anti-albumin Nanobody, not shown: small tags and cut ends)
chain, part: EVQLVESGGGLVQAGGSLRLSCGAAGGTFSSYATGWFRQAPGKEREFVAVFRWSDSHTAYADSVKGRFTISRDGAKNTLYLQMSSLKPEDTAIYYCTTATRPGEWDYWGQGTQVTVSSEVQLVESGGGLVQAGGSQRLSCTASGTIVNIHVMGWYRQAPGKQRELVALIFSGGSADYADSVKGRFTISRDNAKNTVYLEMNSLKAEDTAVYYCAAEIGYYSGGTYYSSEAHWGQGTQVTVSS
On to B4, for which the IC50 stood at 0.161 nM with human IL-17A (human) [5]; 0.051 nM in [6]; 0.367 nM with human IL-17A (human) [11]; 0.128 nM in test [12]; 1.09 nM with human IL-17F (human) [13]; 0.056 nM with human IL-17F (human) [14]. Moreover, the IC50 in [15] was 0.095 nM; with human IL-17F (human) [16] it was 0.046 nM; with human IL-17A (human) [17] it was 0.203 nM. Also, the Emax, hIL-17A induced IL-6, HT-1080, 100 µM HSA with human IL-17A (human) [7] was 98%. This molecule also gave an Emax, hIL-17A induced IL-6, HT-1080, without HSA with human IL-17A (human) [7] of 105%. For the same molecule, in the test with human IL-17A (human) [7], the IC50, hIL-17A induced IL-6, HT-1080, 100 µM HSA came to 1.95 nM. In addition, in the test with human IL-17A (human) [7], the IC50, hIL-17A induced IL-6, HT-1080, without HSA was 0.83 nM. Further, the Emax, hIL-17A/F induced IL-6, HT-1080, 100 µM HSA in test [8] was found to be 72%. In test [8], this molecule displayed an IC50, hIL-17A/F induced IL-6, HT-1080, 100 µM HSA of 1.47 nM. This molecule also displayed an Emax, hIL-17F induced IL-6, HT-1080, 100 µM HSA in the test with human IL-17F (human) [9] of 85%. For the same molecule, the Emax, hIL-17F induced IL-6, HT-1080, without HSA with human IL-17F (human) [9] was found to be 102%. The IC50, hIL-17F induced IL-6, HT-1080, 100 µM HSA with human IL-17F (human) [9] turned out to be 8.5 nM. The IC50, hIL-17F induced IL-6, HT-1080, without HSA with human IL-17F (human) [9] came out at 7.35 nM. In [10], this molecule displayed a koff of 0.0059 s⁻¹.

B5: SH-Fc-(GS)2-13B03 (Fc fusion, not shown: a dimerising Fc or GST; small tags and cut ends)
chain: EVQLVESGGGSVQAGDSLRLSCAASGRANSINWFGWFRQTPGKEREFVAGIRWSDAYTEYANSVKGRFTISRDNAKNTVDLQMDSLKPEDTAVYYCVLDLSTVRYWGQGTQVTVSS
B5: in test [2], the Emax, Cyno IL17A, HT-1080 bioassay is 98% and the IC50, Cyno IL17A, HT-1080 bioassay was 0.37 nM. In addition, in [3], the Emax, Cyno IL17F, HT-1080 bioassay was determined as 103% and the IC50, Cyno IL17F, HT-1080 bioassay was determined as 5 nM.

B6: 07B11 (VHH)
VHH: EVQLVESGGGLVQAGGSLRLSCVASGRAFSSYVMGWFRQAPGMEREFVALIRWSDGITGYVDSVKGRFTISRDNAKNTVYLQMNSLKPEDTAVYYCAAAVRPGDYDYWGQGTQVTVSS
In test [4], B6 returned an OD of 0.186 OD.

B7: IL17MS0154 (bispecific antibody, part only; not given: linkers and anti-albumin Nanobody, not shown: small tags and cut ends)
chain, part: EVQLVESGGGLVQAGGSLRLSCAASGRTFSSYVVGWFRQAPGKEREFIGAISGSGDSIYYAVSEKDRFTISRDNGKNTLYLQMSSLKAEDTAVYYCTADQEFGYLRFGRSEYWGQGTQVTVSSEVQLVESGGGLVQAGGSQRLSCTASGTIVNIHVMGWYRQAPGKQRELVALIFSGGSADYADSVKGRFTISRDNAKNTVYLEMNSLKAEDTAVYYCAAEIGYYSGGTYYSSEAHWGQGTQVTVSS
Regarding B7, the figures for the IC50 in the test with human IL-17A (human) [5] and in the test with human IL-17F (human) [16] were 0.056 nM and 0.047 nM, respectively. In addition, the koff in [10] came to 0.0057 s⁻¹.

B8: IL17MS0110 (bispecific antibody, part only; not given: linkers and anti-albumin Nanobody, not shown: small tags and cut ends)
chain, part: EVQLVESGGGLVQAGGSQRLSCTASGTIVNIHVMGWYRQAPGKQRELVALIFSGGSADYADSVKGRFTISRDNAKNTVYLEMNSLKAEDTAVYYCAAEIGYYSGGTYYSSEAHWGQGTQVTVSSEVQLVESGGGLVQAGGSLRLSCAASGRTFSSYVVGWFRQAPGKEREFIGAISGSGDSIYYAVSEKDRFTISRDNGKNTLYLQMSSLKAEDTAVYYCTADQEFGYLRFGRSEYWGQGTQVTVSS
Regarding B8, the results for the IC50 with human IL-17A (human) [5] and in the test with human IL-17F (human) [16] were 0.045 nM and 0.048 nM, respectively. This molecule also returned a koff in test [10] of 0.0061 s⁻¹.
